This is an account of results in patent US20230374147A1.

For this assay, the target named is BCMA:APRIL 1:1 (human) (UniProt Q02223). In words: BLI, His-tagged human BCMA on tip, then human APRIL 3000 nM, then IgG; KD cell N/A, R2 0.0887.
BCMA:APRIL 1:1 (human), sequence (Q02223 1-54 limits assumed, chain 1 of 2): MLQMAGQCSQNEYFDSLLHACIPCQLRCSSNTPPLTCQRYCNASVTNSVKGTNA
BCMA:APRIL 1:1 (human), sequence (O75888 115-250 limits assumed, chain 2 of 2, further chain): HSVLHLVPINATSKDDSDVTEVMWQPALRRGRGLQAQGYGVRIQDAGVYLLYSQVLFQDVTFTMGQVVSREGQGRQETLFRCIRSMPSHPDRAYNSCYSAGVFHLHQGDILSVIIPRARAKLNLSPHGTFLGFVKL

Take J6M0 (antibody): the BCMA:APRIL 1:1 response turned out to be 0.18.
